Assay results from US20020160955A1 (published 2002).
Positions count from the first letter of the chain named.

Legend:
[1] = biological target: T1, IGF-I G19A (G1S-A70V background) displayed on phage (human; bacteriophage M13); test: competitive phage ELISA
T1 construct: monovalent M13 phage display
T1 chain: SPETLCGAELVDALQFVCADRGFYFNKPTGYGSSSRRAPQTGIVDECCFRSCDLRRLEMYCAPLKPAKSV
How it was run: (§1)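 Phage, normalized to a maximal ELISA signal of 0.2-0.4 per mutant, were premixed with threefold serial dilutions of soluble competitor in 0.5% Tween 20/PBS and incubated 1 h at room temperature on immobilized target.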

[2] = biological target: T2, IGF-I N26A (G1S-A70V background) displayed on phage (human; bacteriophage M13, not fully specified; Displayed monovalently on M13 phage as a C-terminal fusion to the gene III fragment, which is left out of the letters.); test: competitive phage ELISA
T2 construct: monovalent M13 phage display; not shown: Display carrier: M13 gene III fragment (residues 249-406) and its junction
T2 chain: T1 chain with A19G, N26A
How it was run: as §1

[3] = biological target: T3, IGF-I T4A (purified, soluble) (human, UniProt P05019 49-118); test: BIACORE; KD mut/KD wt
T3 construct: made from the wild-type template pBKIGF2B-f1-ori
T3 sequence (P05019 other isoform, or with tags, fused parts or gaps): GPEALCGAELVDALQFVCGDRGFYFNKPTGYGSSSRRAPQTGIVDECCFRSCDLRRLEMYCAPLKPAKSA
Procedure: (§2) Carboxymethylated dextran biosensor chips (CM5, BIAcore Inc.) were activated with EDC (N-ethyl-N′-(3-dimethylaminopropyl)-carbodiimide hydrochloride) and NHS (N-hydroxysuccinimide) according to the supplier's instructions. For immobilization, IGF mutants in 20 mM sodium acetate, pH 4.8, were injected onto the biosensor chip at a concentration of 50 μg/ml to yield approximately 450-600 RU's (resonance-response units) of covalently-coupled protein. Unreacted groups were blocked with an injection of 1 M ethanolamine. […] Association rates (kₐ) and dissociation rates (kd) were calculated separately using a 1:1 Langmuir™ association model in the BIACORE™ evaluation software v. 3.0. The equilibrium dissociation constant (KD) was calculated as kd/kₐ.

[4] = biological target: T4, IGF-I P39A (purified, soluble) (human, UniProt P05019 49-118); test: BIACORE; KD mut/KD wt
T4 construct: made from the wild-type template pBKIGF2B-f1-ori
T4 sequence (P05019 49-118 P87A): as the sequence (P05019 other isoform, or with tags, fused parts or gaps) above, with A4T, P39A counted along it
Procedure: as §2

[5] = biological target: T5, wild-type human IGF-I (purified, soluble) (human, UniProt P05019 49-118); test: BIACORE; KD mut/KD wt
T5 construct: immobilized on the biosensor chip by amine coupling in BIACORE experiments; also called IGF-I WT
T5 sequence (P05019 49-118): as the sequence (P05019 other isoform, or with tags, fused parts or gaps) above, with A4T counted along it
Procedure: as §2

[6] = biological target: T6, IGF-I F25A (purified, soluble) (human, UniProt P05019 49-118); test: BIACORE; KD mut/KD wt
T6 construct: made from the wild-type template pBKIGF2B-f1-ori
T6 sequence (P05019 49-118 F73A): as the sequence (P05019 other isoform, or with tags, fused parts or gaps) above, with A4T, F25A counted along it
Procedure: as §2

[7] = biological target: T7, IGF-I F16A (purified, soluble) (human, UniProt P05019 49-118); test: BIACORE; KD mut/KD wt
T7 construct: made from the wild-type template pBKIGF2B-f1-ori; also called IGF-F16A; FI6A
T7 sequence (P05019 49-118 F64A): as the sequence (P05019 other isoform, or with tags, fused parts or gaps) above, with A4T, F16A counted along it
Procedure: as §2

[8] = biological target: T8, F49A IGF-I (purified, soluble) (human, UniProt P05019 49-118); test: BIACORE; KD mut/KD wt
T8 construct: made from the wild-type template pBKIGF2B-f1-ori; also called F49A IGF variant
T8 sequence (P05019 49-118 F97A): as the sequence (P05019 other isoform, or with tags, fused parts or gaps) above, with A4T, F49A counted along it
Procedure: as §2

[9] = biological target: IGF-I G1S-A70V (purified, soluble) (human, UniProt P05019 50-117); test: BIACORE; KD mut/KD wt
Sequence of IGF-I G1S-A70V (purified, soluble) (P05019 other isoform, or with tags, fused parts or gaps A70V A70V): as the sequence (P05019 other isoform, or with tags, fused parts or gaps) above, with G1S, A4T, A70V counted along it
Procedure: as §2

[10] = biological target: T9, IGF-I V11A (purified, soluble) (human, UniProt P05019 49-118); test: BIACORE; KD mut/KD wt
T9 construct: made from the wild-type template pBKIGF2B-f1-ori
T9 sequence (P05019 49-118 V59A): as the sequence (P05019 other isoform, or with tags, fused parts or gaps) above, with A4T, V11A counted along it
Procedure: as §2

[11] = biological target: T10, IGF-I R36A (purified, soluble) (human, UniProt P05019 49-118); test: BIACORE; KD mut/KD wt
T10 construct: made from the wild-type template pBKIGF2B-f1-ori
T10 sequence (P05019 49-118 R84A): as the sequence (P05019 other isoform, or with tags, fused parts or gaps) above, with A4T, R36A counted along it
Procedure: as §2

B1: human IGFBP-1 (other, UniProt P08833 26-259, looked up)
chain: APWQCAPCSAEKLALCPPVSASCSEVTRSAGCGCCPMCALPLGAACGVATARCARGLSCRALPGEQQPLHALTRGQGACVQESDASAPHAAEAGSPESPESTEITEEELLDNFHLMAPSEEDHSILWDAISTYDGSKALHVTNIKKWKEPCRIELYRVVESLAKAQETSGEEISKFYLPNCNKNGFYHSRQCETSMDGEAGLCWCVYPWNGKRIPGSPEIRGDPNCQIYFNVQN
notes: secreted recombinant protein purified from conditioned medium
Q: Which results are given for B1?
A: IC50 [1]: 11 nM; IC50 [2]: 9.1 nM; relative KD [3]: 6.9; relative KD [4]: 1; relative KD [5]: 1; relative KD [6]: 25; relative KD [7]: 25; relative KD [8]: 70; relative KD [9]: 1.1; relative KD [10]: 5.1; relative KD [11]: 1.1
